From the supplement of paper PMC5998384

Experiments:
HeLa Kyoto [1] = experiment: solubility change mitosis vs G1/S (difference of NP-40 vs SDS log2 ratios) (log2 ratio difference); higher = more soluble in mitosis
HeLa Kyoto [2] = experiment: thermal stability score vs G1/S (z-score of summed log2 fold changes over temperatures); higher = more thermally stable than in G1/S
HeLa Kyoto [3] = experiment: melting temperature (median over replicates), in situ; higher = more thermally stable
HeLa Kyoto [4] = experiment: solubility in G1/S (NP-40 vs SDS abundance) (log2 ratio); higher = more soluble; conditions: cell cycle stage: G1/S
[5] = cell cycle stage: early G1 (4.5 h after nocodazole release)
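For melting temperature (median over replicates), in situ in this document: HeLa Kyoto cells synchronized by double thymidine or nocodazole block, proteins quantified by TMT10plex mass spectrometry, three independent biological replicates.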
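For solubility change mitosis vs G1/S (difference of NP-40 vs SDS log2 ratios) in this document: synchronized HeLa Kyoto cells (double thymidine block for G1/S, nocodazole release for mitosis), protein amounts in NP-40 versus SDS lysates quantified by mass spectrometry, three biological replicates.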
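For solubility in G1/S (NP-40 vs SDS abundance) in this document: HeLa Kyoto cells arrested at G1/S by double thymidine block, proteins quantified by TMT10plex mass spectrometry in mild NP-40 versus SDS extracts, three biological replicates.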
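For thermal stability score vs G1/S (z-score of summed log2 fold changes over temperatures) in this document: synchronized HeLa Kyoto cells, proteins quantified by TMT10plex mass spectrometry, three biological replicates, mitosis taken 0.5 h after nocodazole release, G1/S directly after double thymidine block.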

Row | Sequence | solubility change mitosis (log2) (HeLa Kyoto [1]) | thermal stability score (HeLa Kyoto [2]; [5]) | thermal stability score (HeLa Kyoto [2]; cell cycle stage: mitosis) | melting temperature (HeLa Kyoto [3]; cell cycle stage: G1/S) | melting temperature (HeLa Kyoto [3]; cell cycle stage: mitosis) | solubility in G1/S (log2) (HeLa Kyoto [4])
1 | MASQLQNRLRSALALVTGAGSGIGRAVSVRLAGEGATVAACDLDRAAAQETVRLLGGPGSKEGPPRGNHAAFQADVSEARAARCLLEQVQACFSRPPSVVVSCAGITQDEFLLHMSEDDWDKVIAVNLKGTFLVTQAAAQALVSNGCRGSIINISSIVGKVGNVGQTNYAASKAGVIGLTQTAARELGRHGIRCNSVLPGFIATPMTQKVPQKVVDKITEMIPMGHLGDPEDVADVVAFLASEDSGYITGTSVEVTGGLFM [HSD17B8] | 0.119 | -0.337 | -1.5 | 55.3 °C | 56.3 °C | 0.368
2 | MASRCWRWWGWSAWPRTRLPPAGSTPSFCHHFSTQEKTPQICVVGSGPAGFYTAQHLLKHPQAHVDIYEKQPVPFGLVRFGVAPDHPEVKNVINTFTQTAHSGRCAFWGNVEVGRDVTVPELREAYHAVVLSYGAEDHRALEIPGEELPGVCSARAFVGWYNGLPENQELEPDLSCDTAVILGQGNVALDVARILLTPPEHLERTDITKAALGVLRQSRVKTVWLVGRRGPLQVAFTIKELREMIQLPGARPILDPVDFLGLQDKIKEVPRPRKRLTELLLRTATEKPGPAEAARQASASRAWGLRFFRSPQQVLPSPDGRRAAGVRLAVTRLEGVDEATRAVPTGDMEDLPCGLVLSSIGYKSRPVDPSVPFDSKLGVIPNVEGRVMDVPGLYCSGWVKRGPTGVIATTMTDSFLTGQMLLQDLKAGLLPSGPRPGYAAIQALLSSRGVRPVSFSDWEKLDAEEVARGQGTGKPREKLVDPQEMLRLLGH [FDXR] | -0.0461 | 0.0282 | 0.706 | 51.7 °C | 51.8 °C | 0.349
3 | MASRGRRPEHGGPPELFYDETEARKYVRNSRMIDIQTRMAGRALELLYLPENKPCYLLDIGCGTGLSGSYLSDEGHYWVGLDISPAMLDEAVDREIEGDLLLGDMGQGIPFKPGTFDGCISISAVQWLCNANKKSENPAKRLYCFFASLFSVLVRGSRAVLQLYPENSEQLELITTQATKAGFSGGMVVDYPNSAKAKKFYLCLFSGPSTFIPEGLSENQDEVEPRESVFTNERFPLRMSRRGMVRKSRAWVLEKKERHRRQGREVRPDTQYTGRKRKPRF [WBSCR22] | 0.0973 | 1.09 | 0.578 | 52.9 °C | 52.9 °C | -0.361
4 | MASSAQSGGSSGGPAVPTVQRGIIKMVLSGCAIIVRGQPRGGPPPERQINLSNIRAGNLARRAAATQPDAKDTPDEPWAFPAREFLRKKLIGKEVCFTIENKTPQGREYGMIYLGKDTNGENIAESLVAEGLATRREGMRANNPEQNRLSECEEQAKAAKKGMWSEGNGSHTIRDLKYTIENPRHFVDSHHQKPVNAIIEHVRDGSVVRALLLPDYYLVTVMLSGIKCPTFRREADGSETPEPFAAEAKFFTESRLLQRDVQIILESCHNQNILGTILHPNGNITELLLKEGFARCVDWSIAVYTRGAEKLRAAERFAKERRLRIWRDYVAPTANLDQKDKQFVAKVMQVLNADAIVVKLNSGDYKTIHLSSIRPPRLEGENTQDKNKKLRPLYDIPYMFEAREFLRKKLIGKKVNVTVDYIRPASPATETVPAFSERTCATVTIGGINIAEALVSKGLATVIRYRQDDDQRSSHYDELLAAEARAIKNGKGLHSKKEVPIHRVADISGDTQKAKQFLPFLQRAGRSEAVVEYVFSGSRLKLYLPKETCLITFLLAGIECPRGARNLPGLVQEGEPFSEEATLFTKELVLQREVEVEVESMDKAGNFIGWLHIDGANLSVLLVEHALSKVHFTAERSSYYKSLLSAEEAAKQKKEKVWAHYEEQPVEEVMPVLEEKERSASYKPVFVTEITDDLHFYVQDVETGTQLEKLMENMRNDIASHPPVEGSYAPRRGEFCIAKFVDGEWYRARVEKVESPAKIHVFYIDYGNREVLPSTRLGTLSPAFSTRVLPAQATEYAFAFIQVPQDDDARTDAVDSVVRDIQNTQCLLNVEHLSAGCPHVTLQFADSKGDVGLGLVKEGLVMVEVRKEKQFQKVITEYLNAQESAKSARLNLWRYGDFRADDADEFGYSR [SND1] | 0.0116 | 0.34 | 3.69 | 47.9 °C | 48.1 °C | -0.0826
5 | MASSGEDISNDDDDMHPAAAGMADGVHLLGFSDEILLHILSHVPSTDLILNVRRTCRKLAALCLDKSLIHTVLLQKDYQASEDKVRQLVKEIGREIQQLSMAGCYWLPGSTVEHVARCRSLVKVNLSGCHLTSLRLSKMLSALQHLRSLAIDVSPGFDASQLSSECKATLSRVRELKQTLFTPSYGVVPCCTSLEKLLLYFEILDRTREGAILSGQLMVGQSNVPHYQNLRVFYARLAPGYINQEVVRLYLAVLSDRTPQNLHAFLISVPGSFAESGATKNLLDSMARNVVLDALQLPKSWLNGSSLLQHMKFNNPFYFSFSRCTLSGGHLIQQVINGGKDLRSLASLNLSGCVHCLSPDSLLRKAEDDIDSSILETLVASCCNLRHLNLSAAHHHSSEGLGRHLCQLLARLRHLRSLSLPVCSVADSAPRADRAPAQPAMHAVPRGFGKKVRVGVQSCPSPFSGQACPQPSSVFWSLLKNLPFLEHLELIGSNFSSAMPRNEPAIRNSLPPCSRAQSVGDSEVAAIGQLAFLRHLTLAQLPSVLTGSGLVNIGLQCQQLRSLSLANLGMMGKVVYMPALSDMLKHCKRLRDLRLEQPYFSANAQFFQALSQCPSLQRLCLVSRSGTLQPDAVLAFMARCLQVVMCHLFTGESLATCKSLQQSLLRSFQAERPALNVVIFPLLHEGLTDVIRDVPLVHLDEITLFKSRVAEEPPNLWW [FBXL18] | -0.164 | -1.04 | -1.17 | 53.4 °C | 53 °C | 0.1
6 | MASSRCPAPRGCRCLPGASLAWLGTVLLLLADWVLLRTALPRIFSLLVPTALPLLRVWAVGLSRWAVLWLGACGVLRATVGSKSENAGAQGWLAALKPLAAALGLALPGLALFRELISWGAPGSADSTRLLHWGSHPTAFVVSYAAALPAAALWHKLGSLWVPGGQGGSGNPVRRLLGCLGSETRRLSLFLVLVVLSSLGEMAIPFFTGRLTDWILQDGSADTFTRNLTLMSILTIASAVLEFVGDGIYNNTMGHVHSHLQGEVFGAVLRQETEFFQQNQTGNIMSRVTEDTSTLSDSLSENLSLFLWYLVRGLCLLGIMLWGSVSLTMVTLITLPLLFLLPKKVGKWYQLLEVQVRESLAKSSQVAIEALSAMPTVRSFANEEGEAQKFREKLQEIKTLNQKEAVAYAVNSWTTSISGMLLKVGILYIGGQLVTSGAVSSGNLVTFVLYQMQFTQAVEVLLSIYPRVQKAVGSSEKIFEYLDRTPRCPPSGLLTPLHLEGLVQFQDVSFAYPNRPDVLVLQGLTFTLRPGEVTALVGPNGSGKSTVAALLQNLYQPTGGQLLLDGKPLPQYEHRYLHRQVAAVGQEPQVFGRSLQENIAYGLTQKPTMEEITAAAVKSGAHSFISGLPQGYDTEVDEAGSQLSGGQRQAVALARALIRKPCVLILDDATSALDANSQLQVEQLLYESPERYSRSVLLITQHLSLVEQADHILFLEGGAIREGGTHQQLMEKKGCYWAMVQAPADAPE [TAP1] | -0.112 | 0.594 | 1.74 | 49.8 °C | 50.5 °C | -0.0535
7 | MASTDYSTYSQAAAQQGYSAYTAQPTQGYAQTTQAYGQQSYGTYGQPTDVSYTQAQTTATYGQTAYATSYGQPPTGYTTPTAPQAYSQPVQGYGTGAYDTTTATVTTTQASYAAQSAYGTQPAYPAYGQQPAATAPTRPQDGNKPTETSQPQSSTGGYNQPSLGYGQSNYSYPQVPGSYPMQPVTAPPSYPPTSYSSTQPTSYDQSSYSQQNTYGQPSSYGQQSSYGQQSSYGQQPPTSYPPQTGSYSQAPSQYSQQSSSYGQQSSFRQDHPSSMGVYGQESGGFSGPGENRSMSGPDNRGRGRGGFDRGGMSRGGRGGGRGGMGSAGERGGFNKPGGPMDEGPDLDLGPPVDPDEDSDNSAIYVQGLNDSVTLDDLADFFKQCGVVKMNKRTGQPMIHIYLDKETGKPKGDATVSYEDPPTAKAAVEWFDGKDFQGSKLKVSLARKKPPMNSMRGGLPPREGRGMPPPLRGGPGGPGGPGGPMGRMGGRGGDRGGFPPRGPRGSRGNPSGGGNVQHRAGDWQCPNPGCGNQNFAWRTECNQCKAPKPEGFLPPPFPPPGGDRGRGGPGGMRGGRGGLMDRGGPGGMFRGGRGGDRGGFRGGRGMDRGGFGGGRRGGPGGPPGPLMEQMGGRRGGRGGPGKMDKGEHRQERRDRPY [EWSR1] | 0.157 | 0.0358 | 0.453 | 55.6 °C | 55.8 °C | 0.0308
8 | MATAVSRPCAGRSRDILWRVLGWRIVASIVWSVLFLPICTTVFIIFSRIDLFHPIQWLSDSFSDLYSSYVIFYFLLLSVVIIIISIFNVEFYAVVPSIPCSRLALIGKIIHPQQLMHSFIHAAMGMVMAWCAAVITQGQYSFLVVPCTGTNSFGSPAAQTCLNEYHLFFLLTGAFMGYSYSLLYFVNNMNYLPFPIIQQYKFLRFRRSLLLLVKHSCVESLFLVRNFCILYYFLGYIPKAWISTAMNLHIDEQVHRPLDTVSGLLNLSLLYHVWLCGVFLLTTWYVSWILFKIYATEAHVFPVQPPFAEGSDECLPKVLNSNPPPIIKYLALQDLMLLSQYSPSRRQEVFSLSQPGGHPHNWTAISRECLNLLNGMTQKLILYQEAAATNGRVSSSYPVEPKKLNSPEETAFQTPKSSQMPRPSVPPLVKTSLFSSKLSTPDVVSPFGTPFGSSVMNRMAGIFDVNTCYGSPQSPQLIRRGPRLWTSASDQQMTEFSNPSPSTSISAEGKTMRQPSVIYSWIQNKREQIKNFLSKRVLIMYFFSKHPEASIQAVFSDAQMHIWALEGLSHLVAASFTEDRFGVVQTTLPAILNTLLTLQEAVDKYFKLPHASSKPPRISGSLVDTSYKTLRFAFRASLKTAIYRITTTFGEHLNAVQASAEHQKRLQQFLEFKE [NDC1] | 0.182 | -4.66 | -7.41 | 52.7 °C | 51.3 °C | -0.187
9 | MATCAEILRSEFPEIDGQVFDYVTGVLHSGSADFESVDDLVEAVGELLQEVSGDSKDDAGIRAVCQRMYNTLRLAEPQSQGNSQVLLDAPIQLSKITENYDCGTKLPGLLKREQSSTVNAKKLEKAEARLKAKQEKRSEKDTLKTSNPLVLEEASASQAGSRKESRLESSGKNKSYDVRIENFDVSFGDRVLLAGADVNLAWGRRYGLVGRNGLGKTTLLKMLATRSLRVPAHISLLHVEQEVAGDDTPALQSVLESDSVREDLLRRERELTAQIAAGRAEGSEAAELAEIYAKLEEIEADKAPARASVILAGLGFTPKMQQQPTREFSGGWRMRLALARALFARPDLLLLDEPTNMLDVRAILWLENYLQTWPSTILVVSHDRNFLNAIATDIIHLHSQRLDGYRGDFETFIKSKQERLLNQQREYEAQQQYRQHIQVFIDRFRYNANRASQVQSKLKMLEKLPELKPVDKESEVVMKFPDGFEKFSPPILQLDEVDFYYDPKHVIFSRLSVSADLESRICVVGENGAGKSTMLKLLLGDLAPVRGIRHAHRNLKIGYFSQHHVEQLDLNVSAVELLARKFPGRPEEEYRHQLGRYGISGELAMRPLASLSGGQKSRVAFAQMTMPCPNFYILDEPTNHLDMETIEALGRALNNFRGGVILVSHDERFIRLVCRELWVCEGGGVTRVEGGFDQYRALLQEQFRREGFL [ABCF3] | -0.0928 | 1.82 | 3.62 | 47.9 °C | 47.9 °C | 0.0738
10 | MATEGDVELELETETSGPERPPEKPRKHDSGAADLERVTDYAEEKEIQSSNLETAMSVIGDRRSREQKAKQEREKELAKVTIKKEDLELIMTEMEISRAAAERSLREHMGNVVEALIALTN [HYPK] | 0.208 | -6.39 | -8.21 | 54.4 °C | 54 °C | 0.395
